{"source": "patent EP4814014A1", "about": "“BINDING MOLECULE AND ANTIBODY-DRUG CONJUGATE AND USE THEREOF” (priority 2023, dated 2025)", "molecules": {"B1": {"name": "V-n9A2 anti-cMet VHH-Fc (Fc fusion, not shown: a dimerising Fc or GST)", "chain": "QSQLAESGGGLVQSGGSLGLSCVASGFTISRSIMSWYRQPPGKERDWVASIGSAGNTNYVDSVKGRFTISRDVAKNTVYLQMNSLKPEDTAVYYCKTTLAVSFSEYWGQGTQVTVSS", "notes": "Bivalent VHH-Fc"}, "B2": {"name": "VHH11 (VHH, not shown: small tags and cut ends)", "VHH": "B1 chain with A5V, Q13K, S14P, G19R, V73N, T77S, V78L, K86R, P87A, Q112L", "notes": "Humanized 9A2 anti-cMet VHH-His"}, "B3": {"name": "V-n7A12 anti-cMet VHH-Fc (Fc fusion, not shown: a dimerising Fc or GST)", "chain": "EVQLVESGGGLVQAGGSLRLSCVASGNIFSSNHMGWFRQAPGKQREFIAYITTREITNYADSVKGRFTISRDNTKNTVYLQMNVLKPEDTAVYYCIADQSREIRRSWGQGTQVTVSS", "notes": "Bivalent VHH-Fc"}, "B4": {"name": "anti-cMet biepitopic M-1 molecule (bispecific antibody, V domains shown)", "V domain 1": "B1 chain", "V domain 2": "B3 chain with V12I, V23T, N32Y, T74S, V84N, K86R, P87S, Q112L", "notes": "Asymmetric double-chain form"}, "B5": {"name": "V-n7A12 anti-cMet VHH-His (VHH, not shown: small tags and cut ends)", "VHH": "B3 chain", "notes": "Monovalent parent VHH"}}, "key": {"EBC-1": {"test_system": "EBC-1", "test": "Cell killing assay of ADCs (CCK8), EBC-1", "format": "cell-based, human", "details": "Table 10A; Target cell: EBC-1; 3-5 days", "protocol": "Killing of target cells MDA-MB-468, EBC-1, and NCI-H1975 cells (Cell Bank of the Chinese Academy of Sciences) by the ADC molecules formed by conjugating the […] anti-EGFR/cMet antibody molecules described above to a toxin was assayed by the […].\nThe cells (100 µL, 1 × 10^4) resuspended in a cell culture medium were seeded into each well of a 96-well plate and cultured in an incubator at 37 °C with 5% CO2 overnight. The next day, 100 µL of serially diluted V-20-Fc-PEG-EVC-MMAE, V-23-Fc-PEG-EVC-MMAE, and V-26-Fc-PEG-EVC-MMAE, as well as positive control ADCs ABBV399 and AZD9592 were added to corresponding wells. The cells were cultured for another 3-5 days. Then, 20 µL of CCK8 (Shanghai Life iLab Biotech, Cat. No. AC11L054) was added to each well. The mixtures were cultured in an incubator at 37 °C with 5% CO2 until color development. The absorbance at 450 nm was recorded using a microplate reader (Molecular Device, SpectraMax M5).\nThe cell viability was calculated by the following formula: percentage cell viability = [(As - Ab) / (Ac - Ab)] × 100. As = experimental well absorbance (cells, culture medium, CCK8, and ADCs); Ab = blank well absorbance (culture medium and CCK8); Ac = control well absorbance (cells, culture medium, and CCK8)."}, "Human cMet antigen [1]": {"biological_target": "T1, Human cMet antigen (human, UniProt P08581 25-932)", "T1 construct": "treated as one molecule; also called Human cMet-His antigen", "T1 sequence (P08581 25-932)": "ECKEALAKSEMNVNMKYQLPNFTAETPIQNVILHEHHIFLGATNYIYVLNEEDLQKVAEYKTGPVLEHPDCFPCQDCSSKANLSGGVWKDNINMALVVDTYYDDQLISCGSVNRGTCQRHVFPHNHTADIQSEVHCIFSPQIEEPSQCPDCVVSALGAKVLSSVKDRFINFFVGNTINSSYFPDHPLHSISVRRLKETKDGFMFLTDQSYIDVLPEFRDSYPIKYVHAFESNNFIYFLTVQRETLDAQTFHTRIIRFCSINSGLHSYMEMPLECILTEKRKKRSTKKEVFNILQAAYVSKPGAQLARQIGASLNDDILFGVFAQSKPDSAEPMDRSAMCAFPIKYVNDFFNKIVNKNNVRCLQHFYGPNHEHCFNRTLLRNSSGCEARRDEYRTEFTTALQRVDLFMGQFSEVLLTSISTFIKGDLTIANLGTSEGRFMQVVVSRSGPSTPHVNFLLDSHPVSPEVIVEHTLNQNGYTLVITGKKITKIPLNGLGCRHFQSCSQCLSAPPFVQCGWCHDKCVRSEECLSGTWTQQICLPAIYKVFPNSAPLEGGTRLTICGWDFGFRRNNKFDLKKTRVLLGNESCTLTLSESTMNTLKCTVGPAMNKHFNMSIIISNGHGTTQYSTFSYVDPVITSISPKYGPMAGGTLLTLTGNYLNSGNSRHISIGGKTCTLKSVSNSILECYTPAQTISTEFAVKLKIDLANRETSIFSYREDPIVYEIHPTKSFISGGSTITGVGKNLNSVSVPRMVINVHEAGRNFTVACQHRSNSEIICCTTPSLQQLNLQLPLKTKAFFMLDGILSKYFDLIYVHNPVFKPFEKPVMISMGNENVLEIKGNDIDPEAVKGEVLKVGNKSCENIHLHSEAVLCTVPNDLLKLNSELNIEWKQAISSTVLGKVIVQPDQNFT", "test": "ELISA, antigen coated at 1 ug/mL, VHH-Fc titrated"}, "[2]": {"biological_target": "T2, Cynomolgus monkey cMet antigen (cynomolgus monkey, UniProt A0A2K5UM36 25-932)", "T2 construct": "treated as one molecule; also called cynomolgus monkey cMet-His antigen; Cyno cMet", "T2 sequence (A0A2K5UM36 entry or part of it limits assumed, form in doubt)": "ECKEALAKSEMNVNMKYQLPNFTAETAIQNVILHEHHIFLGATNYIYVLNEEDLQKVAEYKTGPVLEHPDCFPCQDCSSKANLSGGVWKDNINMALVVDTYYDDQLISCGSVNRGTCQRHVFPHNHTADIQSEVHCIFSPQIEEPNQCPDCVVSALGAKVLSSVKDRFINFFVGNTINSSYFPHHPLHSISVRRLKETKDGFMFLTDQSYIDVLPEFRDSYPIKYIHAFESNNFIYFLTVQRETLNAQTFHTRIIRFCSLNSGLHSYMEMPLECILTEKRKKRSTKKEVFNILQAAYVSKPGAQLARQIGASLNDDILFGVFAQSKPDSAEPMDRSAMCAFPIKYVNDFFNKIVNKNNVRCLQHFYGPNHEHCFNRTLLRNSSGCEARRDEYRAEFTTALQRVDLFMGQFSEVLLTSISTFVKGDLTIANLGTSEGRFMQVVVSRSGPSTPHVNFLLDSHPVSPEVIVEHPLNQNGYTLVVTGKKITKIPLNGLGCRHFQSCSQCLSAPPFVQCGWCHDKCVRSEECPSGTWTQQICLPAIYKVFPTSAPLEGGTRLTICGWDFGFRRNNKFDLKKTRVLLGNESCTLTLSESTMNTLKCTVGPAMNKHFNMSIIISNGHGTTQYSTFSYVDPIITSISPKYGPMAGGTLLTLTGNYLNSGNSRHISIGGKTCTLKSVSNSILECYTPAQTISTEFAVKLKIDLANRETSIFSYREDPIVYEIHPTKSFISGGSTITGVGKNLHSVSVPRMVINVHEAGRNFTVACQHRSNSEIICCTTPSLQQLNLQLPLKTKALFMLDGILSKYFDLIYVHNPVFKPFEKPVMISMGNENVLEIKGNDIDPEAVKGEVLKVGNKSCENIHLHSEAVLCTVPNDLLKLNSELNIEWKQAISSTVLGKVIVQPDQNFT", "test": "ELISA, antigen coated at 1 ug/mL, VHH-Fc titrated"}, "human cMet on cells [3]": {"biological_target": "T3, human cMet on cells (human, UniProt P08581 25-1390)", "T3 construct": "whole, on cells; Cell lines: CHO-S-cMet, CHOK1-hucMet, EBC-1, MKN45, NCI-H1975; the cell line is named under assay; also called CHO-S-cMet; CHOK1-hucMet", "T3 sequence (P08581 25-1390)": "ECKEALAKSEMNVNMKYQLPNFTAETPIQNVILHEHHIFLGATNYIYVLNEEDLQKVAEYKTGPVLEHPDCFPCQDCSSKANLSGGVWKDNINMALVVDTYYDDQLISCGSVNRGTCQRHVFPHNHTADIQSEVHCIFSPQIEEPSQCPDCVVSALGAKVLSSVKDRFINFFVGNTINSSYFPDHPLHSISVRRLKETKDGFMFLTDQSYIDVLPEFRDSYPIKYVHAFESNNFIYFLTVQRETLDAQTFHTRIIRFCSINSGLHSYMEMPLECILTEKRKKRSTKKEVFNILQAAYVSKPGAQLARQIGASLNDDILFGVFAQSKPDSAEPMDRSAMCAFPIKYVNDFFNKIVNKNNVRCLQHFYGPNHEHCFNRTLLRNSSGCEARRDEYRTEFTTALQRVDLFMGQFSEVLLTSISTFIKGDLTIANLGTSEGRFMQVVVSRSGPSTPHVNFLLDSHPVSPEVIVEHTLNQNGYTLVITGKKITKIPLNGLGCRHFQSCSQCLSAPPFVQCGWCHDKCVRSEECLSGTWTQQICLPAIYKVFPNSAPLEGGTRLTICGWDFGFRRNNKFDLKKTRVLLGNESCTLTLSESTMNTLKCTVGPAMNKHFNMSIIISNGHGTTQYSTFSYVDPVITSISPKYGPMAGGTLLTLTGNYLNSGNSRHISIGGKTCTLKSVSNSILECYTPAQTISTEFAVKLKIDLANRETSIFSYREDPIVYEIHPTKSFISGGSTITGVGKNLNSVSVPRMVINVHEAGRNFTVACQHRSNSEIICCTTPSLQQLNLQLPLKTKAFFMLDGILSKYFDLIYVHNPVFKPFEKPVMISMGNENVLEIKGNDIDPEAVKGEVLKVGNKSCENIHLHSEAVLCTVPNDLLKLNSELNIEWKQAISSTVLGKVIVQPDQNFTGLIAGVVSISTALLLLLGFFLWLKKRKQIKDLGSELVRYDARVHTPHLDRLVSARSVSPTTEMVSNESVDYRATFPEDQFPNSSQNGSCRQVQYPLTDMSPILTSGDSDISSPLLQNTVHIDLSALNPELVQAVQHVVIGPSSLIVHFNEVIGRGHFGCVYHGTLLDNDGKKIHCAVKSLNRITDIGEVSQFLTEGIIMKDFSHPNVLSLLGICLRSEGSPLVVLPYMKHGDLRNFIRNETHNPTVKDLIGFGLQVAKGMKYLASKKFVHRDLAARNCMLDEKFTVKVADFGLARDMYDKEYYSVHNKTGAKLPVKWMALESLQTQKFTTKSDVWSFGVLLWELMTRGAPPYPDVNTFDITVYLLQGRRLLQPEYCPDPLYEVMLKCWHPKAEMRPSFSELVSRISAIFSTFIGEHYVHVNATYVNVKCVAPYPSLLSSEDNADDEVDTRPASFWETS", "test": "FACS competition on EBC-1 cells, HGF-His as the ligand detected, VHH-Fc from 100 nM"}, "human cMet on cells [4]": {"biological_target": "T3, human cMet on cells", "test": "FACS, VHH-His on EBC-1 cells (cell column empty in this row)"}, "human cMet on cells [5]": {"biological_target": "T3, human cMet on cells", "test": "FACS on EBC-1 cells"}, "human cMet on cells [6]": {"biological_target": "T3, human cMet on cells", "test": "FACS, VHH-His on MKN45 cells"}, "human cMet on cells [7]": {"biological_target": "T3, human cMet on cells", "test": "FACS, VHH-His on MKN45 cells", "remark": "listed apart in the source"}, "human cMet on cells [8]": {"biological_target": "T3, human cMet on cells", "test": "FACS, VHH-His on CHOK1-hucMet cells"}, "human cMet on cells [9]": {"biological_target": "T3, human cMet on cells", "test": "FACS, VHH-His on CHOK1-hucMet cells", "remark": "listed apart in the source"}, "Human cMet antigen [10]": {"biological_target": "T1, Human cMet antigen", "test": "SPR method I, antigen on CM5 chip, VHH-His injected, 1:1 model"}, "[11]": {"biological_target": "T2, Cynomolgus monkey cMet antigen", "test": "SPR method I, antigen on CM5 chip, VHH-His injected, 1:1 model"}}, "note": "Numbering of substitutions follows the chain as printed."}
{"molecule": "ABBV399 [reference compound]", "values": [{"measurement": "IC50", "setting": "EBC-1", "result": 0.194, "unit": "nM"}]}
{"molecule": "B1", "values": [{"measurement": "EC50", "setting": "Human cMet antigen [1]", "result": 0.108, "unit": "nM"}, {"measurement": "EC50", "setting": "[2]", "result": 0.105, "unit": "nM"}, {"measurement": "MFI value at the highest concentration", "setting": "human cMet on cells [3]", "result": 82200, "unit": "MFI"}, {"measurement": "ratio of MFI value at the highest concentration to that at the lowest concentration", "setting": "human cMet on cells [3]", "result": 1.12}]}
{"molecule": "B2", "values": [{"measurement": "EC50", "setting": "human cMet on cells [4]", "result": 2.11, "unit": "nM"}]}
{"molecule": "B3", "values": [{"measurement": "EC50", "setting": "Human cMet antigen [1]", "result": 0.066, "unit": "nM"}, {"measurement": "EC50", "setting": "[2]", "result": 0.063, "unit": "nM"}, {"measurement": "MFI value at the highest concentration", "setting": "human cMet on cells [3]", "result": 40600, "unit": "MFI"}, {"measurement": "ratio of MFI value at the highest concentration to that at the lowest concentration", "setting": "human cMet on cells [3]", "result": 2.22}]}
{"molecule": "B4", "values": [{"measurement": "binding result", "setting": "human cMet on cells [5]", "result": "binds"}]}
{"molecule": "B5", "values": [{"measurement": "EC50", "setting": "human cMet on cells [6]", "result": 3.76, "unit": "nM"}, {"measurement": "Maximum MFI value", "setting": "human cMet on cells [6]", "result": 35600, "unit": "MFI"}, {"measurement": "EC50", "setting": "human cMet on cells [7]", "result": 3.76, "unit": "nM"}, {"measurement": "Maximum MFI value", "setting": "human cMet on cells [7]", "result": 35600, "unit": "MFI"}, {"measurement": "EC50", "setting": "human cMet on cells [8]", "result": 1.01, "unit": "nM"}, {"measurement": "Maximum MFI value", "setting": "human cMet on cells [8]", "result": 74200, "unit": "MFI"}, {"measurement": "EC50", "setting": "human cMet on cells [9]", "result": 1.94, "unit": "nM"}, {"measurement": "Kd", "setting": "Human cMet antigen [10]", "result": 0.301, "unit": "nM"}, {"measurement": "koff", "setting": "Human cMet antigen [10]", "result": 0.000153, "unit": "s⁻¹"}, {"measurement": "kon", "setting": "Human cMet antigen [10]", "result": 509000, "unit": "M⁻¹ s⁻¹"}, {"measurement": "Kd", "setting": "[11]", "result": 96, "unit": "nM"}, {"measurement": "koff", "setting": "[11]", "result": 0.00439, "unit": "s⁻¹"}, {"measurement": "kon", "setting": "[11]", "result": 45800, "unit": "M⁻¹ s⁻¹"}]}
